Common to all, as to details: 0.1 M Tris-acetate pH 7.6, 30°C, apparent
Data set [1] deals with T1, C[C@@H](Cl)C(=O)O.
T1 construct: recombinant from pET-22b(+)-dehE in E. coli, purified from cell-free extract; 32 kDa band on SDS-PAGE; monomeric
In words: colourimetric chloride release (Bergmann and Sanik), A460. It counts as biochemical, Rhizobium sp. RC1. An excerpt:
(§1) colourimetric chloride release (Bergmann and Sanik), A460 on DehE (non-stereospecific α-haloalkanoic acid dehalogenase E)

For data set [2], the system named is T2, C[C@H](Cl)C(=O)O.
T2 construct: recombinant from pET-22b(+)-dehE in E. coli, purified from cell-free extract; 32 kDa band on SDS-PAGE; monomeric
The description is as above. In kind it is biochemical, Rhizobium sp. RC1.
From the text: as §1

The subject of another data set is T3, O=C(O)CCCl.
T3 construct: recombinant from pET-22b(+)-dehE in E. coli, purified from cell-free extract; 32 kDa band on SDS-PAGE; monomeric
Described as above. It counts as biochemical, Rhizobium sp. RC1.
From the text: as §1

For data set [3], the system named is C[C@H](Cl)C(=O)O. In words: purified protein.
Data set [4] relates to C[C@@H](Cl)C(=O)O. In words: purified protein.

Km, kcat and kcat/Km data for two substances are collected here from PMC4376737, “An S188V Mutation Alters Substrate Specificity of Non-Stereospecific α-Haloalkanoic Acid Dehalogenase E (DehE)” (PLoS ONE, 2015).

By kcat is commonly meant the maximal rate divided by the concentration of active sites. What is called kcat/Km is the second-order rate constant that governs catalysis at low substrate concentration. In the case of “DehE (non-stereospecific α-haloalkanoic acid dehalogenase E) (Rhizobium sp. RC1; S188V)”, in the data set with C[C@@H](Cl)C(=O)O [1], the Km entry was “(4.5 ± 0.01) x 10^-4 M”, the catalytic constant (kcat) was found to be 9.18 s⁻¹ and the catalytic efficiency (kcat/Km) turned out to be 20400 M⁻¹ s⁻¹. For the same substance, in the data set with C[C@H](Cl)C(=O)O [2], the Km result is given as “(4.2 ± 0.02) x 10^-4 M”, the kcat turned out to be 13.1 s⁻¹ and the specificity constant (kcat/Km) was determined as 31200 M⁻¹ s⁻¹. Moreover, in the data set on O=C(O)CCCl, the Km result is recorded as “(4.9 ± 0.02) x 10^-4 M”, the kcat amounted to 12.6 s⁻¹ and the specificity constant (kcat/Km) was determined as 25600 M⁻¹ s⁻¹.
As for “DehE (non-stereospecific α-haloalkanoic acid dehalogenase E) (Rhizobium sp. RC1)”, in the data set with C[C@H](Cl)C(=O)O [3], the Km result was “(4.3 ± 0.02) x 10^-4 M”, the kcat stood at 12.3 s⁻¹ and the kcat/Km is 28600 M⁻¹ s⁻¹. Moreover, in the data set with C[C@@H](Cl)C(=O)O [4], the Km result is “(4.8 ± 0.03) x 10^-4 M”, the kcat worked out at 7.76 s⁻¹ and the catalytic efficiency (kcat/Km) came out at 16100 M⁻¹ s⁻¹.
